From patent publication US11639389B2, “Binding molecules with modified J-chain” (IGM Biosciences, Inc., dated 2023)

B1: anti-DR5 IgM (without J-chain) (antibody, V domains shown)
VH: EVQLVQSGGGVERPGGSLRLSCAASGFTFDDYGMSWVRQAPGKGLEWVSGINWNGGSTGYADSVKGRVTISRDNAKNSLYLQMNSLRAEDTAVYYCAKILGAGRGWYFDLWGKGTTVTVSS
VL: SSELTQDPAVSVALGQTVRITCQGDSLRSYYASWYQQKPGQAPVLVIYGKNNRPSGIPDRFSGSSSGNTASLTITGAQAEDEADYYCNSRDSSGNHVVFGGGTKLTVLG
B2: anti-DR5 IgM+wt J-chain (antibody)
heavy: not shown
light: SSELTQDPAVSVALGQTVRITCQGDSLRSYYASWYQQKPGQAPVLVIYGKNNRPSGIPDRFSGSSSGNTASLTITGAQAEDEADYYCNSRDSSGNHVVFGGGTKLTVLGQPKAAPSVTLFPPSSEELQANKATLVCLISDFYPGAVTVAWKADSSPVKAGVETTTPSKQSNNKYAASSYLSLTPEQWKSHRSYSCQVTHEGSTVEKTVAPTECS
chain: not shown

Biological target: DR5 (TRAILR2) (Homo sapiens)
Assay: cell-based or functional assay

| Binder | cell viability of COLO205 cells after 24 hours (Cell-Titer Glo) |
| --- | --- |
| B1 | > 1000 fold, compared to the corresponding IgG |
| B2 | > 1000 fold, compared to the corresponding IgG |
